Laboratory results reported in patent US20210363269A1 (ALX ONCOLOGY, published 2021).
Where a chain is given by its changes, count along the chain named.

T1: NOD mouse SIRP-α D1 domain (mouse (NOD strain))
T1 chain: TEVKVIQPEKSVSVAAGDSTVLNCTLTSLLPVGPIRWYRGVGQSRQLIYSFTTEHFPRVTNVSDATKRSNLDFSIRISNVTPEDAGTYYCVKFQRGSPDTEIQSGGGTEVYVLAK

T2: cynomolgus SIRP-α D1 domain (cyno1) (cynomolgus monkey, UniProt Q5TFQ8 30-148 (human entry), limits assumed)
T2 chain: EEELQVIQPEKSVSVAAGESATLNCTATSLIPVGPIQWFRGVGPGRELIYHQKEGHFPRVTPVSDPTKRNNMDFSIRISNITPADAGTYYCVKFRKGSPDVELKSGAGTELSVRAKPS

T3: C57BL/6 mouse SIRP-α D1 domain (mouse (C57BL/6 strain), UniProt P97797 32-148)
T3 sequence: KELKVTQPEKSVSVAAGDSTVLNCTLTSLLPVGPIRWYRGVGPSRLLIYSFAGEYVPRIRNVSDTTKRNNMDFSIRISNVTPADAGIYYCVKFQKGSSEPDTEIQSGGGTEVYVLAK

T4: high affinity SIRP-α D1 variant CV1-3
T4 chain: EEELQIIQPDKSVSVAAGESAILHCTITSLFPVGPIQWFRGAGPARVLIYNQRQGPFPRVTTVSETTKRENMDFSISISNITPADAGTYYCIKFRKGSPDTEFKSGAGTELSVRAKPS

T5: mouse 129 SIRP-α D1 domain (mouse (129 strain), UniProt P97797 32-150)
T5 construct: also called m129
T5 chain: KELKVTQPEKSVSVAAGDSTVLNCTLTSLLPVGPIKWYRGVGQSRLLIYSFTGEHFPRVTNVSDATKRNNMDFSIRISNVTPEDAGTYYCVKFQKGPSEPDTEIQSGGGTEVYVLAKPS

T6: cynomolgus SIRP-α D1 domain (cyno2) (cynomolgus monkey, UniProt Q5TFQ8 30-148 (human entry), limits assumed)
T6 chain: T2 chain with E19D, A27V, T28S, V42A, H51N, Q52L, P62A

T7: mouse 129 SIRP-α (mouse (129 strain), UniProt P97797 32-150)
T7 construct: also called m129
T7 chain: T5 chain

B1: S3 (scFv, V domains shown)
VH: AVTLDESGGGLQTPGGALSLVCKASGFIFSDYGMNWVRQAPGKGLEFVAQITSGSRTYYGAAVKGRATISRDNRQSTVKLQLNNLRAEDTGIYFCARDFGSGVGSIDAWGNGTEVIVSS
VL: ALTQPASVSANLGGTVKITCSGSRGRYGWYQQRSPGSAPVTVIYRDNQRPSNIPSRFSSSTSGSTSTLTITGVQADDESVYFCGSYDGSIDIFGAGTTLTVL
notes: also called clone 3; scFv-Fc form of AB3
B2: S28 (scFv, V domains shown)
VH: DVQLVESGGGVVRPGESLRLSCAASGFSFSSNAMSWVRQAPGKGLEWVAGISASGDTYYSGSMKGRFTISRDNSKNTLYLQMNSLTAEDTAVYYCARETWNHLFDYWGLGTLVTVSS
VL: ALTQPASVSANPGETVKITCSGGSDSYYYGWHQQKSPGSAPVTVIYSDDQRPPDIPSRFSGSASGSTTTLTITGVRAEDEAVYYCGGYDYSTYTNTFGAGTTLTVL
notes: also called clone 28
B3: S73 (scFv, V domains shown)
VH: DVQLVESGGGVVRPGESLRLSCEASGFTFSSNAMSWARQAPGKGLEWVAGISSGSDTYYGDSVKGRLTISRDNSKNILYLQMNSLTAEDTAVYYCARETWNHLFDYWGLGTLVTVSS
VL: ALTQPASVSANPGETVKITCSGGIYSSYYYAWYQQKSPGSAPVTLIYSDDKRPSNIPSRFSGSASGSTATLTITGVRAEDEAVYFCGGYDQSSYTNPFGAGTTLTVL
notes: also called clone 73
B4: S201 (scFv, V domains shown)
VH: DVQLVESGGAVVRPGETLRLSCTASGFTFSSYAMSWVRQAPGKGLEWVSGISASGSDTYYADSVKGRSTISRDNSKNTLYLRMSSLTAEDTAVYYCARETWNHLFDYWGLGTLVTVSS
VL: ALTQPASVSANPGETVKITCSGGGTSSYYGWYQQKSPGSAPVTLIHSDDKRPSDIPSRFSGSASGSTATLTITGVQVEDEAVYYCGGYDYTTYVNTFGAGTTLTVL
B5: S206 (scFv, V domains shown)
VH: B4 VH with V116L
VL: B4 VL with V77A
B6: antibody 191 (antibody, V domains shown)
VH: DVQLVESGGGVVRPGESLRLSCAASGFSFSSYAMNWVRQAPGEGLEWVSRINSGGGGTDYAESVKGRFTISRDNSENTLYLQMNSLRAEDTAVYYCAKQYDWNGFFDYWGLGALVTVSS
VL: ETVLTQSPATLSVSPGERATLSCRASQTVGSKLAWHQQKPGQAPRLLIYDATNRATGIPDRFSGSGSGTDFTLTISGLQTEDSAVYYCQQYYYWPPYRFGGGTKVEIK
notes: also called S191
B7: antibody 198 (antibody, V domains shown)
VH: B6 VH with Y32H
VL: B6 VL with G77S
notes: also called S198
B8: antibody 218 (antibody, V domains shown)
VH: DVQLVESGGGVVRPGESLTLSCTASGFTFTSSTMNWVRQAPGEGLDWVSSISTSGVITYYADSVKGRATISRDNSKNTLYLRLFSLRADDTAIYYCATDTFDHWGPGTLVTVSS
VL: ALTQPASVSANPGETVKITCFGSSGNYGWFQQKSPGSAPVTVIHYNNKRPSDIPSRFSGSKSGSTGTLTITGVRAEDEAVYFCGAWETGSATFGAGTTLTVL
notes: also called AB218; S218
B9: antibody 175 (antibody, V domains shown)
VH: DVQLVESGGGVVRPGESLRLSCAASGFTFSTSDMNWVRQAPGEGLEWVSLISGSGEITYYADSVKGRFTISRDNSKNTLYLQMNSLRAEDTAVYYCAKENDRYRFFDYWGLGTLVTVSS
VL: ETVLTQSPGILSLSPGERATLTCRASQSVYTYLAWYQEKPGQAPRLLIYGASSRAAGIPDRFSGSGSGTEFTLTISSLQSEDFAVYYCQQYYDRPPLTFGGGTKVEIK
notes: also called S175
B10: antibody 189 (antibody, V domains shown)
VH: DVQLVESGGGVVRPGESLRLSCAASGFTFSSSDMNWVRQAPGEGLEWVSLISGSGEITYYADSVKGRFTISRDNSKNTLYLQMNSLRAEDTAIYYCAKENNMYRFFDYWGLGTLVTVSS
VL: B9 VL with I10T, T22S, E38Q, A43P, Y49H, G50A, S52R, S53N
notes: also called S189
B11: antibody 202 (antibody, V domains shown)
VH: DVQLVESGGGVVRPGESLRLSCAASGFTFSSYAMSWVRQAPGKGLEWLAGISAGGSDTYYIDSVKGRFTISRDNSKNSLYLQMNSLTAEDTAVYYCARETWNHLFDYWGLGTLVTVSS
VL: ALTQPASVSANPGETVKITCSGGGYYSTYYGWYQQRSPGSAPVTVIHSDDKRPSDIPSRFSGSASGSAATLTITGVRVEDEAVYYCAGYDGRTYLNTFGAGTTLTVL
notes: also called S202
B12: antibody 3 (antibody, V domains shown)
VH: B1 VH
VL: B1 VL
notes: also called AB3; S3
B13: antibody 73 (antibody, V domains shown)
VH: B3 VH
VL: B3 VL
notes: also called S73
B14: antibody 16 (antibody, V domains shown)
VH: DVQLVESGGGVVRPGESLRLSCAVSGFRFSSYAMSWVRQAPGKGLEWVSGISSGGDTYYVDSVKGRFTISRDNSKNTLYLQVNSLTAEDTAIYYCARETWNHLFDYWGLGTLVTVSS
VL: ALTQPASVSANLGETVKITCSGGDSSSHYYGWYQQKSPGSAPVTVIYSDDERPSDIPSRFSGSASGSTATLTITGVRVEDEAIYYCGAYDGSTYANTFGAGTTLTVL
notes: also called S16
B15: antibody 201 (antibody, V domains shown)
VH: B4 VH
VL: B4 VL
notes: also called S201

Biological target: T1, NOD mouse SIRP-α D1 domain
Experiment: SPR, Langmuir fit
How it was run: (§1)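 scFv-Fc antibody clones were captured from pre-filtered culture media onto anti-human IgG Fc, amine-coupled at about 4000 RU on a GLC chip in a ProteOn XPR36 instrument. SIRP analytes were passed over in PBS pH 7.4 with 0.01% Tween-20 at 25° C, and responses were double-referenced against interspot and buffer-blank signals. Curves were fitted to a 1:1 Langmuir model. Dissociation rate constants (koff) were taken from those fits.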

Binder | koff [s⁻¹]
B1 | 0.00119
B2 | 0.000616
B3 | 0.00148
B4 | 0.00215
B5 | 0.00223

These binders were tested against T8, human SIRP-α v2 D1 domain (human) (assay: SPR, Langmuir fit).
T8 construct: also called human v2
How it was run: as §1

T8 sequence (chain, as listed by the source limits assumed): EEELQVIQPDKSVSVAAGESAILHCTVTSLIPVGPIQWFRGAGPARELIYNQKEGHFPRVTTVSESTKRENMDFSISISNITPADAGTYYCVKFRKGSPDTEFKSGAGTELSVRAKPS

Binder | koff [s⁻¹]
B1 | 0.000276
B2 | 1.47e-05
B3 | 7.49e-05
B4 | 4.27e-05
B5 | 3.6e-05

Biological target: T2, cynomolgus SIRP-α D1 domain (cyno1)
Experiment: SPR, Langmuir fit
How it was run: as §1

Binder | koff [s⁻¹]
B1 | 0.00218
B2 | 0.000115
B3 | 0.000127
B4 | 0.000636
B5 | 0.000624

Each binder was assayed against T3, C57BL/6 mouse SIRP-α D1 domain (assay: SPR, Langmuir fit).
How it was run: as §1

Binder | koff [s⁻¹]
B1 | 0.00197
B2 | 0.00186
B3 | 0.000373
B4 | 0.00111
B5 | 0.00157

Biological target: T4, high affinity SIRP-α D1 variant CV1-3
Experiment: SPR, Langmuir fit
How it was run: as §1

Binder | koff [s⁻¹]
B1 | 0.000394
B2 | 6.59e-05
B3 | 5.28e-05
B4 | 8.32e-05
B5 | 8.22e-05

The binders below were run against T9, human SIRPγ isoform 1 (human, UniProt Q9P1W8 29-147) (assay: SPR, Langmuir fit).
T9 construct: also called SIRPg; sirpg
How it was run: as §1

T9 sequence (Q9P1W8 29-147 limits assumed): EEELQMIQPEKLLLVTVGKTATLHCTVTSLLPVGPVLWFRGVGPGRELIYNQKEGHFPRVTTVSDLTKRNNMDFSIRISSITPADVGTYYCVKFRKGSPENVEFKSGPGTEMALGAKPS

Binder | koff [s⁻¹]
B1 | 0.000162
B2 | 3.27e-05
B3 | 7.3e-05
B4 | 0.000185
B5 | 0.000192

Biological target: T5, mouse 129 SIRP-α D1 domain
Experiment: SPR, Langmuir fit
How it was run: as §1

Binder | koff [s⁻¹]
B1 | 0.000655
B2 | 0.000306
B3 | 0.000164
B4 | 0.000818
B5 | 0.000901

Biological target: T6, cynomolgus SIRP-α D1 domain (cyno2)
Experiment: SPR, Langmuir fit
How it was run: as §1

Binder | koff [s⁻¹]
B1 | 0.00174
B2 | 0.000132
B3 | 0.000119
B4 | 0.000522
B5 | 0.000518

What follows are binders tested against T10, human SIRP-α v1 D1 domain (human, UniProt P78324 31-149) (assay: SPR, Langmuir fit).
T10 construct: also called human v1
How it was run: as §1

T10 sequence (P78324 31-149 limits assumed): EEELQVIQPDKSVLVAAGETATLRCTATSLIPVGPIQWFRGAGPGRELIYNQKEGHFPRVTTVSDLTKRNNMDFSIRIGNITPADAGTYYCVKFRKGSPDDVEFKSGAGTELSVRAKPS

Binder | koff [s⁻¹]
B1 | 0.00041
B2 | 2.11e-05
B3 | 1.9e-05
B4 | 3.46e-05
B5 | 3.5e-05

The binders below were run against T11, human SIRPβ isoform 1 (human, UniProt O00241 30-148) (assay: SPR, Langmuir fit).
T11 construct: also called SIRPb; sirpb1
How it was run: as §1

T11 sequence (O00241 30-148 limits assumed): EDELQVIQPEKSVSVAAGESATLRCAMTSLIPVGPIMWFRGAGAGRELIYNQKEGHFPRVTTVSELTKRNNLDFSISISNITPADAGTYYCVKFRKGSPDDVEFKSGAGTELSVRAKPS

Binder | koff [s⁻¹]
B1 | 0.00192
B2 | 6.29e-05
B3 | 0.000108
B4 | 0.0041
B5 | 0.00437

Biological target: T7, mouse 129 SIRP-α
Experiment: SPR Koff +/-
How it was run: (§2)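 Runs took place at 25° C in PBS pH 7.4 containing 0.01% Tween-20 on a ProteOn XPR36 biosensor, with purified antibodies either amine-coupled to a GLC chip or captured through biotinylated Protein A on an NLC chip. SIRP analytes went in by one-shot kinetic injection at nominal concentrations based on A280 absorbance. Apparent rate constants came from a global simple Langmuir fit of double-referenced data, and KD was calculated as kd/ka.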

Binder | binding result
B6 | no binding
B7 | no binding

Each binder was assayed against T12, human SIRP-α v2 (human) (assay: SPR).
T12 construct: also called Human v2; Human V2
How it was run: as §2

Binder | Kd [nM]
B8 | 0.276
B9 | 0.662
B10 | 1.9
B11 | < 0.001
B12 | 0.0767
B13 | < 0.001
B14 | < 0.001
B15 | 0.00487

Each binder was assayed against T13, human SIRP-α v1 (human, UniProt P78324 31-149) (assay: SPR).
T13 construct: also called Human v1; Human V1
How it was run: as §2

T13 sequence (P78324 31-149 limits assumed): as the sequence (P78324 31-149 limits assumed) above

Binder | Kd [nM]
B8 | 0.123
B9 | 0.137
B10 | 0.31
B11 | < 0.001
B12 | 0.162
B13 | < 0.001
B14 | < 0.001
B15 | < 0.001
